This is an account of results in patent publication US20200000897A1 (published 2020).

Bounds are passed on as bounds.

The test has as its target T1, HLA-A*03:01 (human).
T1 construct: MHC class I monomer first loaded with a UV-sensitive peptide that is cleaved by UV irradiation and exchanged for the test peptide; captured on streptavidin plates; also called peptide-receptive MHC molecules
The test is described as follows: UV-ligand exchange, anti-b2m ELISA; peptide exchange yield grade (>10% +, >20% ++, >50% +++, >75% ++++). The gist of the method: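 HLA-A*03:01 complexes were formed by UV-induced exchange of a photocleavable peptide for the test peptide. Exchange yield was measured by ELISA: streptavidin capture of 100-fold diluted monomers, HRP-anti-β2m detection, TMB read at 450 nm, quantified against HLA-A*02:01 monomer standards (15–500 ng/ml) and graded by % yield.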
For orientation: ELISA stands for enzyme-linked immunosorbent assay.

B1: FLGLAFHPK (peptide)
peptide: FLGLAFHPK
As for B1, the peptide exchange yield is 20 to 50%.

B2: RTYTCQVTY (peptide)
peptide: RTYTCQVTY
In turn, B2 had a peptide exchange yield of over 75%.

B3: RAVSVNPGK (peptide)
peptide: RAVSVNPGK
In turn, B3 returned a peptide exchange yield of 10 to 20%.

B4: RVRALGSQY (peptide)
peptide: RVRALGSQY
The molecule B4 yielded a peptide exchange yield of over 75%.

B5: VSVAGSILAK (peptide)
peptide: VSVAGSILAK
Turning to B5, the peptide exchange yield was 20 to 50%.

B6: RLLQHTPSAR (peptide)
peptide: RLLQHTPSAR
B6: the peptide exchange yield was over 75%.

B7: SVEGLSRRLK (peptide)
peptide: SVEGLSRRLK
On to B7, for which the peptide exchange yield was 50 to 75%.

B8: HMDEFKRTQK (peptide)
peptide: HMDEFKRTQK
Regarding B8, the peptide exchange yield was 50 to 75%.

B9: GMTLLCEALK (peptide)
peptide: GMTLLCEALK
B9 showed a peptide exchange yield of 20 to 50%.

B10: TTNARILAR (peptide)
peptide: TTNARILAR
B10 yielded a peptide exchange yield of 50 to 75%.
